The record followed here is patent EP4671282A1 (Jiangsu Hengrui Pharmaceuticals Co., Ltd., dated 2025).

Assay [1] deals with T1, human IL-23 protein (Sino Biological, CT048-H08H) (human, UniProt Q9NPF7 20-189; P29460 23-328).
T1 construct: Detected with Anti-His-HRP in the ELISA, so it carries a His tag
T1 sequence (looked up) 1: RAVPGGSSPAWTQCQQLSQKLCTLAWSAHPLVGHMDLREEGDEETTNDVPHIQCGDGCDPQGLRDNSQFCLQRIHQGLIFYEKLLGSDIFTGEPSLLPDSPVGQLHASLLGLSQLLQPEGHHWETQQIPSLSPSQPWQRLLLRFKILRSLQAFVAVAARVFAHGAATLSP
T1 sequence (looked up) 2: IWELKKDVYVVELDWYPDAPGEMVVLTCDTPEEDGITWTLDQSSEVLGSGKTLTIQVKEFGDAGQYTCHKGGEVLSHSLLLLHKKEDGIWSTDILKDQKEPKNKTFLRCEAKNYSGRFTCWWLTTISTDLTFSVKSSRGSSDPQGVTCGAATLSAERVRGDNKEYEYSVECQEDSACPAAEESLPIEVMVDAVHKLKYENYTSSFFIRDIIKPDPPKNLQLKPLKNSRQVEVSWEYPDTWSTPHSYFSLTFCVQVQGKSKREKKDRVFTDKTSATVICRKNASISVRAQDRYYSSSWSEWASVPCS
As to the kind of experiment: SPR (Biacore 8K), antibody captured on Protein A chip, IL-23 as analyte. In general terms: Surface plasmon resonance follows binding to a sensor surface in real time, without labels.

For assay [2], the target named is T1, human IL-23 protein (Sino Biological, …). Description: competition ELISA, IL-23R coated, biotinylated IL-23 preincubated with antibody. In general terms: In an ELISA, binding on a coated surface is turned into a signal by an enzyme label.
The target of assay [3] is T2, human IL-23 protein (ACROBiosystems, ILB-H52W5) (human, UniProt Q9NPF7 20-189; P29460 23-328).
T2 construct: Bought protein; construct not described; also called Human IL-23 antigen; human IL-23 antigen protein
T2 sequence (looked up) 1: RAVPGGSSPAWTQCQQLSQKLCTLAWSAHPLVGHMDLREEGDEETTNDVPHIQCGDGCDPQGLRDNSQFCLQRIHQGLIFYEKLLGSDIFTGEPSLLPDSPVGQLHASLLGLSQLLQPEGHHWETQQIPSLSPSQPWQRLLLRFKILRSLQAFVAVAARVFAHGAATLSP
T2 sequence (looked up) 2: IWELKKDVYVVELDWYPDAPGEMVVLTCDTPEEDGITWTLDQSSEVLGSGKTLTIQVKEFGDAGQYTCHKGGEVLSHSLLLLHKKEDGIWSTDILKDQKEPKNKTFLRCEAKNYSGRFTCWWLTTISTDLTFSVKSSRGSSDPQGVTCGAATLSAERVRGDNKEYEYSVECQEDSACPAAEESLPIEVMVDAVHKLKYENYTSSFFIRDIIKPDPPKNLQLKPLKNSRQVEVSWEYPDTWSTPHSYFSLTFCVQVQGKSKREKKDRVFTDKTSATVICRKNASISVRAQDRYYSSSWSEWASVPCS
As to the kind of experiment: ELISA, human IL-23 coated.

In assay [4] the target is T2, human IL-23 protein (ACROBiosystems, …). Description: SPR (Biacore 8K), antibody captured by anti-human IgG Fc, IL-23 as analyte.
For assay [5], the target named is T3, Human IL-36R protein (His + Avi Tag), Kactus IL1-HM4L2 (human, UniProt Q9HB29 20-335).
T3 construct: Bought protein; also called human IL-36R antigen protein; Human IL-36R antigen
T3 sequence: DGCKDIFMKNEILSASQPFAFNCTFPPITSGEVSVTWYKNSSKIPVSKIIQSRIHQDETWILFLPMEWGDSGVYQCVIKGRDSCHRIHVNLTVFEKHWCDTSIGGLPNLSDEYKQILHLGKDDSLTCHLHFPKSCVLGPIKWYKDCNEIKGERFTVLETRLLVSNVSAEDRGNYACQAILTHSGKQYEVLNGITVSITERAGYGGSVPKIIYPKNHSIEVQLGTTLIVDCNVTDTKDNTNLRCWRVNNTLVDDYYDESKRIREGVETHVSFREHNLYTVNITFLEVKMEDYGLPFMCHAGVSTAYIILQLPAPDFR
As to the kind of experiment: SPR (Biacore 8K), antibody captured by anti-human IgG Fc, IL-36R as analyte.

Assay [6] concerns the target T4, IL-36R on human skin squamous cell line A431 (human, UniProt Q9HB29 20-575).
T4 sequence (looked up): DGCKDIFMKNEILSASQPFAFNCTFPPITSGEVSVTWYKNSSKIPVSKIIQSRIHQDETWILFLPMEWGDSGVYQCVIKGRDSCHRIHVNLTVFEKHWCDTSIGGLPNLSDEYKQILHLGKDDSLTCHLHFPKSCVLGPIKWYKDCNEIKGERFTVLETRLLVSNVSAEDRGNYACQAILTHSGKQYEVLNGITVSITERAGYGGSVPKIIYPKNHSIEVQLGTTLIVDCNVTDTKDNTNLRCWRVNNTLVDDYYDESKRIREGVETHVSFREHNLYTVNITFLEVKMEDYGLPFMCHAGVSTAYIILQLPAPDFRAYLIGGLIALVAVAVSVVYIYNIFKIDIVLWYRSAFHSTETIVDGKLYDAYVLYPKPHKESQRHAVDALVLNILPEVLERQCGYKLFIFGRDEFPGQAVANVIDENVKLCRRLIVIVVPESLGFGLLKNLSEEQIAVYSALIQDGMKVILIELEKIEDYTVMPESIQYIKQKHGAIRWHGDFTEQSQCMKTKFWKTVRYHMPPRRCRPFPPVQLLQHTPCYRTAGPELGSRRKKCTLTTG
Description: cell-based or functional assay.

The target in assay [7] is T1, human IL-23 protein (Sino Biological, …). As to the kind of experiment: cell-based or functional assay.
The target is the same in assay [8]. As to the kind of experiment: ELISA, test sample coated, His-tagged IL-23 in solution.
Assay [9] has the same target. As to the kind of experiment: SPR (Biacore 8K), antibody captured on Protein A chip, IL-23 as analyte. This is another data set of the same source.
For assay [10], the target named is T3, Human IL-36R protein (His + Avi Tag), …. Description: SPR (Biacore 8K), antibody captured by anti-human IgG Fc, IL-36R as analyte. The source holds these as a separate data set.
The target of assay [11] is T5, human IL-36R full-length protein stably expressed on CHO-K1 cells (human, UniProt Q9HB29 20-575).
T5 construct: FlpIn CHO-K1 line expressing the full-length protein; also called human IL-36R on the surface of CHO-K1 cells; CHO-K1 cells overexpressing human IL-36R
T5 sequence: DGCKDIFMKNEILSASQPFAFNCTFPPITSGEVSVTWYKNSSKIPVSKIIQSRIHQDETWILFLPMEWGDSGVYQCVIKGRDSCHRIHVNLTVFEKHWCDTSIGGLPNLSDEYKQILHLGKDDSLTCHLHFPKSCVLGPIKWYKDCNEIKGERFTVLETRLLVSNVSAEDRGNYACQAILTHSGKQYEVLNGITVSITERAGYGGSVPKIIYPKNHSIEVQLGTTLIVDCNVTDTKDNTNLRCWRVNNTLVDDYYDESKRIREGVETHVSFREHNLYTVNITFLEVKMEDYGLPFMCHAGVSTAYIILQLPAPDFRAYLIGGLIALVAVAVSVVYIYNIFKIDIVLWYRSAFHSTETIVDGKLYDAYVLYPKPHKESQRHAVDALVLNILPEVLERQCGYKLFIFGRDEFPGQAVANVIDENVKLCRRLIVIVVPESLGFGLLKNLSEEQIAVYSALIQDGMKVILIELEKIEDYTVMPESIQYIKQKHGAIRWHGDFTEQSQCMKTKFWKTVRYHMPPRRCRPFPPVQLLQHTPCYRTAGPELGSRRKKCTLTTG
As to the kind of experiment: FACS, CHO-K1 cells overexpressing human IL-36R.

For assay [12], the target named is T5, human IL-36R full-length protein stably …. Description: FACS, CHO-K1 cells overexpressing human IL-36R. This is another data set of the same source.
Assay [13] shares this target. As to the kind of experiment: FACS, CHO-K1 cells overexpressing human IL-36R. The source holds these as a separate data set. A general note: A flow cytometer gives signals particle by particle.
For assay [14], the target named is T4, IL-36R on human skin squamous cell line …. As to the kind of experiment: cell-based or functional assay. The source holds these as a separate data set.

Where two headings read alike, the source gives them in different places.

B1: Risankizumab (anti-IL-23 antibody control molecule) (antibody, human IgG1, kappa, L234A L235A, V domains shown)
VH: QVQLVQSGAEVKKPGSSVKVSCKASGYTFTDQTIHWMRQAPGQGLEWIGYIYPRDDSPKYNENFKGKVTITADKSTSTAYMELSSLRSEDTAVYYCAIPDRSGYAWFIYWGQGTLVTVSS
VL: DIQMTQSPSSLSASVGDRVTITCKASRDVAIAVAWYQQKPGKVPKLLIYWASTRHTGVPSRFSGSGSRTDFTLTISSLQPEDVADYFCHQYSSYPFTFGSGTKLEIKR
The term Kd denotes the free concentration of one partner at which half of the binding sites on the other are occupied at equilibrium, for simple one-to-one binding. As a reminder, the koff is the first-order rate constant of dissociation. The kon is the second-order rate constant of association. Usually IC50 stands for the concentration at which inhibition is half-maximal. Low values mean higher potency, high ones lower potency. What is called EC50 is the concentration giving half of the maximal effect. The low end stands for higher potency in that assay, the high end for lower potency in that assay. Regarding B1, in assay [1], the Kd amounted to 0.0651 nM, the koff came out at 4.91e-05 s⁻¹ and the kon was 754000 M⁻¹ s⁻¹. Moreover, the IC50 in assay [2] turned out to be 0.61 nM. Also, a half-maximal effect in [3] (EC50) was put at 4.72 nM.

B2: IL-36R-IL-23-04 (anti-IL-36R and anti-IL-23 bispecific antibody, VHH162_Hu11 on Hu29-19, Structure B) (bispecific antibody, human IgG1, kappa, L234A L235A)
heavy: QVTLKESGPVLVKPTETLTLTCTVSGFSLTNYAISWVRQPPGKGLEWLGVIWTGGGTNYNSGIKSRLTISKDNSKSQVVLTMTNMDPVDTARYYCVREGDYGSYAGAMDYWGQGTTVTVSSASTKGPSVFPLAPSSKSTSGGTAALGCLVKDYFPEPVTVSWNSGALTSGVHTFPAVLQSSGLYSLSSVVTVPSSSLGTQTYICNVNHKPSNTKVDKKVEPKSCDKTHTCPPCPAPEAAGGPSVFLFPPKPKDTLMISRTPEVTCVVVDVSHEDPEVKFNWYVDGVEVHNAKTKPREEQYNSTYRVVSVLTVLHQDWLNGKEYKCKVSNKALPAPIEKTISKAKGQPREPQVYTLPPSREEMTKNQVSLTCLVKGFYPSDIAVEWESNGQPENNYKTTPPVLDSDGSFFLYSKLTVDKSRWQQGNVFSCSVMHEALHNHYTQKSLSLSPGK
light: EVQLVESGGGLVQPGGSLRLSCAASGYSYRTQCLGWYRQAPGKQREAVATISGGGTSTYYSDSVKGRFTISQDNSKTTVYLQMNSLRAEDTAVYYCAKGLSVLGSWCHGGSSYEYTYSGQGTLVTVSSGGGGSGGGGSDIVLTQSPDSLAVSLGERATINCRASESVDYYGISSMHWFQQKPGQPPKLLIYRASNLESGIPARFSGSGSRTDFTLTISSLQAEDVAVYYCQQANKDPYTFGGGTKVEIKRTVAAPSVFIFPPSDEQLKSGTASVVCLLNNFYPREAKVQWKVDNALQSGNSQESVTEQDSKDSTYSLSSTLTLSKADYEKHKVYACEVTHQGLSSPVTKSFNRGEC
notes: VHH fused by a (G4S)2 linker to the N-terminus of the light chain; IgG1 L234A/L235A
In assay [4], B2 showed a Kd of 0.0702 nM, a koff of 6.02e-05 s⁻¹ and a kon of 858000 M⁻¹ s⁻¹. For the same molecule, in assay [5], the Kd was found to be 17.7 nM, the koff turned out to be 0.000216 s⁻¹ and the kon came to 12200 M⁻¹ s⁻¹. Moreover, the “IL-36α-induced A431 IL-8 secretion IC50” value in assay [6] turned out to be 0.34 nM.

B3: chimeric antibody Ch29 (antibody, human IgG1, kappa, L234A L235A, V domains shown)
VH: QVQLKESGPGLVAPSQSLSITCTVSGFSLTSYAISWVRQPPGKGLEWLGVIWTGGGTNYNSGIKSRLTISKDNSKSQVFLNMNSLQTEDTARYYCVREGDYGSYAGAMDYWGQGTSVTVSS
VL: DIVLTQSPASLAVSLGQRATISCRASESVDYYGISSMHWFQQKPGQPPKLLIYRASNLESGIPARFSGSGSRTDFTLTINRVETDDVATYYCQQANKDPYTFGGGTKLEIKR
For B3, the “Activity in inhibiting proliferation of BaF3-IL-23R cells (IC50, nM)” value in [7] was 0.175 nM. The same molecule gave an EC50 in assay [8] of 1.16 nM. For the same molecule, in assay [9], the Kd worked out at 0.0207 nM, the koff is 8.4e-05 s⁻¹ and the kon amounted to 4.05e+06 M⁻¹ s⁻¹. For the same molecule, the IC50 in assay [2] was 0.386 nM.

B4: BI655130 (anti-human IL-36R antibody from Boehringer Ingelheim) (antibody, human IgG1, kappa, L234A L235A, V domains shown)
VH: QVQLVQSGAEVKKPGASVKVSCKASGYSFTSSWIHWVKQAPGQGLEWMGEINPGNVRTNYNENFRNKVTMTVDTSISTAYMELSRLRSDDTAVYYCTVVFYGEPYFPYWGQGTLVTVSS
VL: QIVLTQSPGTLSLSPGERATMTCTASSSVSSSYFHWYQQKPGQAPRLWIYRTSRLASGVPDRFSGSGSGTDFTLTISRLEPEDAATYYCHQFHRSPLTFGAGTKLEIKR
notes: Control, self-expressed according to WO2013074569A1; also called B1655130
Turning to B4, in assay [10], the Kd came to 7.16 nM, the koff came to 9.54e-05 s⁻¹ and the kon was determined as 13300 M⁻¹ s⁻¹. Moreover, in [11], the EC50 was 0.75 nM and the “Maximum MFI” value is 12900 MFI. For the same molecule, in assay [12], the EC50 is 0.51 nM and the “Maximum MFI” value stood at 14200 MFI. Also, the “IL-36α-induced A431 IL-8 secretion IC50” value in [6] was found to be 0.06 nM. Also, in assay [13], the EC50 was 0.51 nM and the “Maximum MFI” value was found to be 13400 MFI. In assay [14], the “IL-8 secretion (A431), IL-36α, IC50” value was 0.26 nM; the “IL-8 secretion (A431), IL-36β, IC50” value was found to be 0.1 nM; the “IL-8 secretion (A431), IL-36γ, IC50” value came out at 0.04 nM.
